According to publication PMC5560242:
Like-named read-outs stand apart in the source and are kept apart here.

Legend:
MBNL1-zf12 [1] = biological target: T1, MBNL1-zf12 (Homo sapiens, UniProt Q9NR56 1-92); test: BLI
T1 sequence: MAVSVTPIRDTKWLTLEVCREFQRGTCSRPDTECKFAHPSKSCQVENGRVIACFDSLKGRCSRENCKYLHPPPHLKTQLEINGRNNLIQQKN

MBNL1-zf12 [2] = biological target: T1, MBNL1-zf12; test: NMR HSQC titration
MBNL1-zf12 [3] = biological target: T1, MBNL1-zf12; test: BLI; remark: listed apart in the source

B1: hcTnT15 (ssRNA)
RNA: GUCUCGCUUUUCCCC
Question: Which Kd (MBNL1-zf12 [1]) does the source give for B1 here?
Answer: 130 nM

B2: hcTnT13 (ssRNA)
RNA: CUCGCUUUUCCCC
Question: Does B2 bind (MBNL1-zf12 [2])?
Answer: binds

B3: hcTnT15m (U103G) (ssRNA)
RNA: GUCUCGCUGUUCCCC
Question: Which Kd (MBNL1-zf12 [3]) does the source give for B3 here?
Answer: 500 nM
